The test system of this test is human PRLR in HEK293/hPRLR/STAT5-Luc cells. Put plainly: STAT5-Luc reporter assay, blocking of PRL-mediated receptor activation (5 nM PRL). The test is classed as cell-based. The settings on record: read-out: IC50 of Blocking 5 nM PRL; 5 nM constant PRL, 6 hr at 37° C. An excerpt: The ability of anti-PRLR antibodies to block prolactin (PRL)-mediated receptor activation was examined in a luciferase-based reporter assay. The endocrine hormone PRL binds to the extracellular domain of its cognate receptor PRLR, triggering rapid homodimerization and activating several downstream signaling cascades.
In this example, an engineered cell line was used to determine the ability of anti-PRLR antibodies to block ligand activation of the PRLR receptor. Briefly, HEK293/hPRLR/STAT5-Luc cell lines with stable incorporation of a human PRLR expression cassette and the STAT5-dependent luciferase reporter were generated via sequential rounds of Lipofectamine® 2000-mediated transfection (LifeTechnologies, Carlsbad, Calif.). Cells were selected for at least two weeks in the presence of 500 μg/mL G418 (hPRLR) and 100 μg/mL hygromycin B (STAT5-Luc). The STAT5-Luc assay utilized 2×10^5 HEK293/hPRLR/STAT5-Luc cells seeded in complete growth medium on PDL-coated 96 well plates grown overnight at 37° C., 5% CO2. To generate antibody inhibition curves, cells were incubated (6 hr at 37° C.) with serially diluted anti-human PRLR antibodies (100 nM to 24 pM) in the presence of 5 nM constant PRL before recording signal. PRL dose response curves were generated by the addition of serially diluted PRL (100 nM to 24 pM) to cells and recording signal after a 6 hr (37° C.) incubation in the absence of antibodies. The ability of the antibodies to activate PRLR in the absence of ligand was also assessed.
Luciferase activity was measured with ONE-Glo™ reagent (Promega, Madison, Wis.). Relative light units (RLUs) were measured on a Victor luminometer (Perkin Elmer, Shelton, Conn.). EC50/IC50 values were determined from a four-parameter logistic equation over an 8-point response curve using GraphPad Prism. Percent blocking and percent activation are reported for the highest antibody dose.

B1: H1H6795P: fully human anti-PRLR antibody, human IgG1 Fc; HCVR/LCVR SEQ ID NOs 162/170 (antibody, V domains shown)
VH: QVQLVQSGAEVKKPGASVKVSCKASGYTFGTSGITWVRQAPGQGLEWMGWSSAYNGKTDYAQKFQDRVTMTTDTSTTTGYMEMRSLTSDDTAVYYCTTVVRRPFDFWGQGTLVTVSS
VL: DIQMTQSPSSLSASVGDRVTITCRASQDINNFLAWFQQKPGKAPKSLIYAASSLQSGVPSKFSGGGSGTDFALTISSLQPEDFATYYCQQYSSYPITFGQGTRLEIK
Take B1: the IC50 was more than 100 nM.

B2: H1H6797P: fully human anti-PRLR antibody, human IgG1 Fc; HCVR/LCVR SEQ ID NOs 178/186 (antibody, V domains shown)
VH: EVQLVESGGGLVQPGGSLRLSCIVSGFTFSGSWMSWVRQLPGKGLEWVANIKEDGSDSYYVDSVEGRFTISRDNAKSSLYLQMNSLRVDDTAVYFCARARTVPLHYWGQGTLVTVSS
VL: DIQMTQSPSTLSASVGDRVTITCRASQSINIWLAWYQQKPGKAPKLLIYRASYLESGVPSSFAGGGSGTEFTLTISSLQPDDFGTYYCQHYNSYPFTFGQGTKLEIK
In the case of B2, the half-inhibitory concentration (IC50) is more than 100 nM.

B3: H1H6774P: fully human anti-PRLR antibody, human IgG1 Fc; HCVR/LCVR SEQ ID NOs 34/42 (antibody, V domains shown)
VH: EVQLVESGGGLAQPGGSLRLSCVASGFTFSTYWMSWVRQAPGKGLDWVGNIKQDGSEQNYVDSVRGRFTISRDNAKNSLFLQMNSLRAEDTGVYYCATLLTKGDYWGQGTLVTVSS
VL: DIQMTQSPSSLSASVGDSVTITCRASQDISNYLDWFQQKPGKAPKSLIYAASILQGGVPSRFSGSGYGTDFTLTISSLQPEDFATYYCRQYKTYPFTFGPGTKVDIK
Consider B3, for which the half-maximal inhibitory concentration (IC50) is more than 100 nM.

Usually IC50 stands for the concentration at which inhibition is half-maximal.

The record behind these values is patent US10925971B2, “Methods of treating PRLR positive breast cancer” (Regeneron Pharmaceuticals, Inc., priority 2016, dated 2021).
